“Also recorded” adds a separate entry of the source.

Results on one molecule are retold here after patent US20130189747A1, “Compositions Comprising A Polypeptide Having Cellulolytic Enhancing Activity And A Sulfur-Containing Compound And Uses Thereof” (priority 2010, published 2013).

Type in all cases: biochemical
Data set [1] deals with Trichoderma reesei cellulase composition. In words: Hydrolysis of milled washed pretreated corn stover (PCS) by the Trichoderma reesei cellulase composition with/without GH61 polypeptide and sulfur-containing compound. As to conditions: for Enhancement of hydrolysis of milled washed PCS by the GH61 polypeptide: no sulfur-containing compound; for GH61 effect (Equation 4): in the absence of L-cysteine (Example 4); for Percent conversion of milled washed PCS: no L-cysteine. As to the method: (§1) The effect of various sulfur-containing compounds on the cellulolytic enhancing activity of GH61 polypeptides was evaluated according to the procedures described below.

For data set [2] the test system is unchanged. In words: Hydrolysis of milled unwashed pretreated corn stover (PCS) by the Trichoderma reesei cellulase composition with/without GH61 polypeptide and sulfur-containing compound. As to conditions: for Enhancement of hydrolysis of milled unwashed PCS by the GH61 polypeptide: no sulfur-containing compound. As to the method: as §1
The test system is the same in data set [3]. In words: Hydrolysis of AVICEL® (microcrystalline cellulose) by the Trichoderma reesei cellulase composition with/without GH61 polypeptide and sulfur-containing compound. How it is done:
as §1

B1: T. aurantiacus GH61A polypeptide: GH61A polypeptide having cellulolytic enhancing activity (SEQ ID NO: 14), recombinantly prepared in Aspergillus oryzae JaL250 (protein, listed as Thermoascus aurantiacus)
chain: MSFSKIIATAGVLASASLVAGHGFVQNIVIDGKYYGGYLVNQYPYMSNPPEVIAWSTTATDLGFVDGTGYQTPDIICHRGAKPGALTAPVSPGGTVELQWTPWPDSHHGPVINYLAPCNGDCSTVDKTQLEFFKIAESGLINDDNPPGIWASDNLIAANNSWTVTIPTTIAPGNYVLRHEIIALHSAQNQDGAQNYPQCINLQVTGGGSDNPAGTLGTALYHDTDPGILINIYQKLSSYIIPGPPLYTG
Turning to B1, the results for the “Enhancement of hydrolysis of milled washed PCS by the GH61 polypeptide” value in data set [1] (1 day), in data set [1] (3 days) and in data set [1] (7 days) were 14%, 31% and 31%, respectively. In addition, the “GH61 effect (Equation 4)” value in data set [1] (PCS, 3 days) is given as 1.31±0.030; in data set [1] (milled washed PCS, 7 days) it was “approximately 1.31±0.03”; in data set [2] (milled unwashed PCS, 7 days, in the absence of L-cysteine (Example 4)), 1.19±0.08; in data set [3] (AVICEL®, day 1, in the absence of L-cysteine, all GH61 concentrations tested (5.6, 14, 28 mg per liter), FIG. 3B), 1. Besides, the “Percent conversion of milled washed PCS” value turned out to be 27±0.8% in data set [1] (day 1, GH61 polypeptide at 10% (w/w) of the cellulase composition (2 mg per g cellulose)); 27±0.8% in data set [1] (day 1, GH61 polypeptide at 25% (w/w) of the cellulase composition (2 mg per g cellulose)); 27±0.8% in data set [1] (day 1, GH61 polypeptide at 50% (w/w) of the cellulase composition (2 mg per g cellulose)); 55±3% in data set [1] (day 3, GH61 polypeptide at 10% (w/w) of the cellulase composition (2 mg per g cellulose)); 57±0.5% in data set [1] (day 3, GH61 polypeptide at 25% (w/w) of the cellulase composition (2 mg per g cellulose)); 59±2% in data set [1] (day 3, GH61 polypeptide at 50% (w/w) of the cellulase composition (2 mg per g cellulose)). In addition, the “Enhancement of hydrolysis of milled unwashed PCS by the GH61 polypeptide” value in data set [2] (1 day) turned out to be 19%; in data set [2] (3 days) it was 21%; in data set [2] (7 days) it was 19%. For the same molecule, the “GH61 polypeptide concentration at which the GH61 effect was maximal” value in data set [3] (AVICEL®, day 1, intermediate L-cysteine concentrations, FIG. 3B) was “approximately 15 mg per liter”. Further, the “Effect of the GH61 polypeptide on hydrolysis of AVICEL® (microcrystalline cellulose) by the T. reesei cellulase composition” value in data set [3] (in the absence of a sulfur-containing compound) is listed as “did not enhance; also recorded: no detectable effect”.
